According to article PMC9841331 (The EMBO Journal, 2023):
Numbering of substitutions follows the chain as printed. Values joined by “and” are separate entries in the source; they are usually repeats but may differ in a detail not shown here. Identical values can stand only once. Blank lines part the entries; values can stand above or below the binder they belong to.

What was measured:
[1] = target: the molecule itself; test: native gel or EMSA
[2] = target: retromer^mRuby (yeast Vps26/Vps29/Vps35 complex labelled with mRuby) (S. cerevisiae, UniProt P40335 1-379; P38759 1-282; P34110 1-944); test: fluorescence microscopy of recruitment to supported membrane tubes

B1: retromer^mClover (yeast Vps26/Vps29/Vps35 complex carrying mClover-tagged Vps29), wild-type Vps35 (complex, S. cerevisiae)
chain 1: MSIFFKPPIDIEILFDNEESRKHVDIATRSSNSSYKSMKESLPVYEDGESLGGIVTLRVRDSKKVDHLGIKVSVIGSIDMLKSHGSGNSSSKKVTSSTSSSSSNGSVDVRKNSVDQFLCQSYDLCPAGELQHSQSFPFLFRDLSKRYESYKGKNVDVAYYVKVTVMRKSTDISKIKRFWVYLYNSVTTAPNTLSANETKATTNDIAGGNYAADNASDNTQTKSTQGEAADVNQVLPISHSNNEPKPVRLDIGIENCLHIEFEYAKSQYSLKEVIVGRIYFLLTRLRIKHMELSLITRESSGLQTSNVMTDSTAIRYEIMDGSSVKGETIPIRLFLSGYDLTPNMSCNYFNVKNYLSLVIIDEDGRRYFKQSEITLYRTR
chain 2: MLLLALSDAHIPDRATDLPVKFKKLLSVPDKISQVALLGNSTKSYDFLKFVNQISNNITIVRGEFDNGHLPSTKKDKASDNSRPMEEIPMNSIIRQGALKIGCCSGYTVVPKNDPLSLLALARQLDVDILLWGGTHNVEAYTLEGKFFVNPGSCTGAFNTDWPIVFDVEDSDEAVTSEVDKPTKENQSEDDDAKGGSTGKEQPGSYTPKEGTAGERENENESNVKPENQFKEDEVDMSDSDINGSNSPSFCLLDIQGNTCTLYIYLYVNGEVKVDKVVYEKE
chain 3: MAYADSPENAIAVIKQRTALMNRCLSQHKLMESLQHTSIMLTELRNPNLSPKKYYELYVIIFDSLTNLSTYLIENHPQNHHLADLYELVQYTGNVVPRLYLMITVGTSYLTFNEAPKKEILKDMIEMCRGVQNPIRGLFLRYYLSQRTKELLPEDDPSFNSQFIMNNFIEMNKLWVRLQHQGPLRERETRTRERKELQILVGSQLVRLSQIIDDNFQMYKQDILPTILEQVIQCRDLVSQEYLLDVICQVFADEFHLKTLDTLLQTTLHLNPDVSINKIVLTLVDRLNDYVTRQLEDDPNATSTNAYLDMDVFGTFWDYLTVLNHERPDLSLQQFIPLVESVIVLSLKWYPNNFDNLNKLFELVLQKTKDYGQKNISLESEHLFLVLLSFQNSKLQLTSSTTAPPNSPVTSKKHFIFQLISQCQAYKNILALQSISLQKKVVNEIIDILMDREVEEMADNDSESKLHPPGHSAYLVIEDKLQVQRLLSICEPLIISRSGPPANVASSDTNVDEVFFNRHDEEESWILDPIQEKLAHLIHWIMNTTSRKQTMKNKIQFSLEAQLEILLLIKSSFIKGGINVKYTFPAIITNFWKLMRKCRMIQEYLLKKRPDNKTLLSHYSNLLKQMFKFVSRCINDIFNSCNNSCTDLILKLNLQCAILADQLQLNEISYDFFSQAFTIFEESLSDSKTQLQALIYIAQSLQKTRSLYKEAYYDSLIVRCTLHGSKLLKKQDQCRAVYLCSHLWWATEISNIGEEEGITDNFYRDGKRVLECLQRSLRVADSIMDNEQSCELMVEILNRCLYYFIHGDESETHISIKYINGLIELIKTNLKSLKLEDNSASMITNSISDLHITGENNVKASSNADDGSVITDKESNVAIGSDGTYIQLNTLNGSSTLIRGVVATASGSKLLHQLKYIPIHHFRRTCEYIESQREVDDRFKVIYV
stoichiometry N [1]: 2 and 4

B2: retromer^PISA-mClover (Vps26/Vps29-mClover/Vps35^PISA) (complex, S. cerevisiae)
chain 1: B1 chain 1
chain 2: B1 chain 2
chain 3: B1 chain 3 with D671A, L722A, K726A, R775A
binding result [1]: binds

binding result [2]: binds
B3: SNX-BAR complex (yeast sorting nexins Vps5/Vps17) (complex, S. cerevisiae)
chain 1: MDYEDNLEAPVWDELNHEGDKTQSLVSNSIESIGQISTNEERKDNELLETTASFADKIDLDSAPEWKDPGLSVAGNPQLEEHDNSKADDLINSLAPEQDPIADLKNSTTQFIATRESGGALFTGNANSPLVFDDTIYDANTSPNTSKSISGRRSGKPRILFDSARAQRNSKRNHSLKAKRTTASDDTIKTPFTDPLKKAEKENEFVEEPLDDRNERRENNEGKFTASVEKNILEQVDRPLYNLPQTGANISSPAEVEENSEKFGKTKIGSKVPPTEKAVAFKVEVKDPVKVGELTSIHVEYTVISESSLLELKYAQVSRRYRDFRWLYRQLQNNHWGKVIPPPPEKQSVGSFKENFIENRRFQMESMLKKICQDPVLQKDKDFLLFLTSDDFSSESKKRAFLTGSGAINDSNDLSEVRISEIQLLGAEDAAEVLKNGGIDAESHKGFMSISFSSLPKYNEADEFFIEKKQKIDELEDNLKKLSKSLEMVDTSRNTLAASTEEFSSMVETLASLNVSEPNSELLNNFADVHKSIKSSLERSSLQETLTMGVMLDDYIRSLASVKAIFNQRSKLGYFLVVIENDMNKKHSQLGKLGQNIHSEKFREMRKEFQTLERRYNLTKKQWQAVGDKIKDEFQGFSTDKIREFRNGMEISLEAAIESQKECIELWETFYQTNL
chain 2: MTSAVPYDPYDDLDNNPFAEPQEEDSEPAATTTDGSSSMSEERVGTEQTAASVQDNGTANNIQNGLGEEGNATRSKTSNEHNENQQPSQPSERVILPERSDEKKKYTLLAKVTGLERFGSATGKKENPTIIFDCSTNLPTFRKQQYKNVKKSYEEFHQLFKYLNVAIQESFVPTLPSAYTTFGINSEEDRMKVTRNFQLWFNRLSQDPLIIRNEEVAFFIESDFNTYTPINKSKSLASGLKRKTLKQLAPPYDEITELAEFRPLVKSIYVVSQSLQEKLLRVSRNRKMMVQEENAFGQDFVNLDEHNKLYRRYGKILTAVGDIDSIIATMDMATLYDGLEWIVRDAYAVKEALTNRHFIMRNLVQAQQNSKAKQEQARRFRSRRDINPMKIDEALRQLKAAAKNEQVLTLKLQRITSNMIIERKQWISWYEEWIRSSIKEFTLRKIEYERKKLTLLERVRSDIRKADENGGLSRLGRHAVSNNNSDTSQTLKGDSWTGESNRKSQIPINKIAHTEFDDELFTEDDGYNSQDSDTTSLNARHAASLLGMSTK
